Here are results for nine molecules from US20150330991A1 (GWANGJU INSTITUTE OF SCIENCE AND TECHNOLOGY, published 2015).

Assay [1] addresses T1, fibronectin extra domain B (ED-B) (UniProt P02751 1266-1356, biotinylated (biotin ED-B), site not stated).
T1 construct: domain: ED-B; Biotin-EDB captured on a streptavidin SA chip (2,000 RU) for SPR and on streptavidin-coated wells for ELISA; also called biotin ED-B; biotin-EDB
Kind of assay: SPR (Biacore X), biotin-EDB on a streptavidin SA chip. The procedure:
(§1) The bipodal peptide binder found from BPB2EDB, BPB3EDB, and BPB4EDB maturation libraries were synthesized (Anygen, Korea). The affinity measurement was conducted using BIAcore X (Biacore AB, Uppsala, Sweden). 2,000 RU of biotin-EDB was allowed to flow on the streptavidin SA chip (Biacore) for immobilization. PBS (pH 7.4) was used as a running buffer, and kinetics at different concentrations was measured under a flow rate of 30 μl per minute. The affinity was calculated using BlAevaluation software (Biacore AB, Uppsala, Sweden).
On the technique in general: SPR reads the build-up and loss of mass on a sensor chip optically.

Assay [2] has as its target T1, fibronectin extra domain B (ED-B). Put plainly: SPR (BIAcore X), biotin-EDB on streptavidin SA chip, synthetic peptide as analyte; peptide 1. The procedure: as §1
Assay [3] has as its target T2, streptavidin (UniProt P22629 37-163, limits assumed).
T2 construct: Immobilised on a CM5 chip (2000 RU) for SPR; coated on plates for ELISA; also called streptavidin protein
Kind of assay: SPR (BIAcore X), ratio of KD values. The procedure:
(§2) A streptavidin-binding peptide optimized peptide and an existing peptide were synthesized (Anygen). The affinity measurement was conducted using BIAcore X (Biacore AB, Uppsala, Sweden). Here, 2000 RU of streptavidin was allowed to flow on the CM5 chip (Biacore) for immobilization. PBS (pH 7.4) was used as a running buffer, and the kinetics at different concentrations was measured under a flow rate of 30 μl per minute. The affinity was calculated using BlAevaluation software (Biacore AB, Uppsala, Sweden).
(§3) Optimized peptide Strep_opti1 and control peptide […] were synthesized, and affinities thereof were measured using the SPR Biacore system.

For assay [4], the target named is T2, streptavidin. Kind of assay: SPR (BIAcore X), streptavidin immobilised on CM5 chip, synthetic peptide as analyte. The procedure:
as §2, §3

Another assay has as its target T3, BSA (bovine, UniProt P02769).
T3 construct: not further described; off-target control protein of the specificity ELISA
Put plainly: phage ELISA, wells coated with 5 µg/ml protein, anti-M13-HRP, absorbance at 450 nm. The procedure: In order to investigate specificities to streptavidin, of peptides (Strep_opti1 and Strep_opti2) obtained through sequencing, recombinant phages expressing these peptides were used to investigate specificities to streptavidin, BSA, ovalbumin, and VEGF. First, 5 μg/ml streptavidin, BSA, ovalbumin, and VEGF were put in a 96-well ELISA plate (50 μl per well), and then allowed to stand at 4° C. overnight. Next day, all the wells were washed three times with 0.1% PBST, and blocked at room temperature for 2 hrs using 2% BSA diluted with PBS. Then, the solution was discarded, followed by washing with 0.1% PBST three times. 800 μl of recombinant phages of each of Strep_opti1 and Strep_opti2 and 200 μl of 10% BSA were added thereto, and each 100 μl was dispensed into streptavidin, BSA, ovalbumin, and VEGF wells, followed by standing at 27° C. for 1 hr. After washing five times with 0.1% PBST solution, the HRP-conjugated anti-M13 antibody (GE Healthcare) was diluted to 1:1,000, and then the reaction was performed at 27° C. for 1 hr. After washing five times with 0.1% PBST, 100 μl of the TMB solution was dispensed into each well to induce a colorimetric reaction, and then the reaction was stopped by adding 100 μl of 1 M HCl. The absorbance was measured at 450 nm.

Assay [5] deals with T1, fibronectin extra domain B (ED-B). Put plainly: SPR (BIAcore X), biotin-EDB on streptavidin SA chip.
Assay [6] deals with T4, vascular endothelial growth factor receptor 1 (VEGFR1) (UniProt P17948 27-756, limits assumed).
T4 construct: Immobilised on a CM5 chip (7000 RU) for SPR; coated on plates for ELISA; also called VEGFR1 protein
Kind of assay: SPR (BIAcore X), from RU at 5 µM against the control's RU at 200 µM. The procedure:
A VEGFR1-binding peptide optimized peptide and an existing peptide were synthesized (Anygen). The affinity measurement was conducted using BIAcore X (Biacore AB, Uppsala, Sweden). Here, 7000 RU of VEGFR1 was allowed to flow on the CM5 chip (Biacore) for immobilization. PBS (pH 7.4) was used as a running buffer, and the kinetics at different concentrations was measured under a flow rate of 30 μl per minute. The affinity was calculated using BlAevaluation software (Biacore AB, Uppsala, Sweden).
Optimized peptide VEGFR1_opti1 and control peptide GNQWFI were synthesized, and affinities thereof were measured using the SPR Biacore system.

The target of assay [7] is T2, streptavidin. Put plainly: phage ELISA, wells coated with 5 µg/ml protein, anti-M13-HRP, absorbance at 450 nm. The procedure:
In order to investigate specificities to streptavidin, of peptides (VEGFR1_opti1, VEGFR1_opti2, and VEGFR1_opti3) obtained through sequencing, recombinant phages expressing these peptides were used to investigate specificities to VEGFR1, VEGFR2, streptavidin, HSA, TNF, and VEGF. First, 5 μg/ml VEGFR1, VEGFR2, streptavidin, HSA, TNF, and VEGF were put in a 96-well ELISA plate (50 μl per well), and then allowed to stand at 4° C. overnight. The next day, all the wells were washed three times with 0.1% PBST, and blocked at room temperature for 2 hrs using 2% BSA diluted with PBS. Then, the whole solution was discarded, followed by washing three times with 0.1% PBST. 800 μl of recombinant phages of each of VEGFR1_opti1, VEGFR1_opti2, and VEGFR1_opti3 and 200 μl of 10% BSA were added thereto, and each 100 μl was dispensed into VEGFR1, VEGFR2, streptavidin, HSA, TNF, and VEGF wells, followed by standing at 27° C. for 1 hr. After washing five times with 0.1% PBST solution, the HRP-conjugated anti-M13 antibody (GE Healthcare) was diluted to 1:1,000, and then the reaction was performed at 27° C. for 1 hr. After washing with 0.1% PBST five times, 100 μl of the TMB solution was dispensed into each well to induce a colorimetric reaction, and then the reaction was stopped by adding 100 μl of 1 M HCl. The absorbance was measured at 450 nm.
(ELISA stands for enzyme-linked immunosorbent assay.)

The target in assay [8] is T1, fibronectin extra domain B (ED-B). Kind of assay: SPR (BIAcore X), biotin-EDB on streptavidin SA chip, synthetic peptide as analyte; peptide 2. The procedure:
as §1

T1 sequence (P02751 1266-1356 limits assumed): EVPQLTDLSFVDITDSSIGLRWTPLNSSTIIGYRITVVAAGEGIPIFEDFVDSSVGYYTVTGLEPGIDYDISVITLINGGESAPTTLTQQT
T2 sequence (P22629 37-163 limits assumed): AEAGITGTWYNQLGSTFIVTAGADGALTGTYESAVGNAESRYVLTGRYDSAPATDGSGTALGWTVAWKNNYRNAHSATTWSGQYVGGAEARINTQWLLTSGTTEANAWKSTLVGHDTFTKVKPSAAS
T3 sequence (P02769 25-607 limits assumed): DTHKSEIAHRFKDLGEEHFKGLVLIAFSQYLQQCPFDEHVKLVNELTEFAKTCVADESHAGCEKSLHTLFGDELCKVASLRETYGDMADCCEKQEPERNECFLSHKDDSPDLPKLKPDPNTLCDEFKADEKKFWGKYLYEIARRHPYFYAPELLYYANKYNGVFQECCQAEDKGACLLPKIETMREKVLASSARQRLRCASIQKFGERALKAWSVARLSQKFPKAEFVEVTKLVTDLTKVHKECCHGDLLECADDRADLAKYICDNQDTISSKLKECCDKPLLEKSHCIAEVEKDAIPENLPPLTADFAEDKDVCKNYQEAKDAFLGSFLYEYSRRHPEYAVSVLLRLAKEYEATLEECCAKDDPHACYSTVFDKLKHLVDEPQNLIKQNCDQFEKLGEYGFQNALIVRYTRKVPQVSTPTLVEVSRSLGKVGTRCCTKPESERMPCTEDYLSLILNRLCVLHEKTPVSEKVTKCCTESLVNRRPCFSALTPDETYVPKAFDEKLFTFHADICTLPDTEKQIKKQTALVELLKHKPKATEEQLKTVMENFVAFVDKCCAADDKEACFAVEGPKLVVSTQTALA
T4 sequence (P17948 27-756 limits assumed): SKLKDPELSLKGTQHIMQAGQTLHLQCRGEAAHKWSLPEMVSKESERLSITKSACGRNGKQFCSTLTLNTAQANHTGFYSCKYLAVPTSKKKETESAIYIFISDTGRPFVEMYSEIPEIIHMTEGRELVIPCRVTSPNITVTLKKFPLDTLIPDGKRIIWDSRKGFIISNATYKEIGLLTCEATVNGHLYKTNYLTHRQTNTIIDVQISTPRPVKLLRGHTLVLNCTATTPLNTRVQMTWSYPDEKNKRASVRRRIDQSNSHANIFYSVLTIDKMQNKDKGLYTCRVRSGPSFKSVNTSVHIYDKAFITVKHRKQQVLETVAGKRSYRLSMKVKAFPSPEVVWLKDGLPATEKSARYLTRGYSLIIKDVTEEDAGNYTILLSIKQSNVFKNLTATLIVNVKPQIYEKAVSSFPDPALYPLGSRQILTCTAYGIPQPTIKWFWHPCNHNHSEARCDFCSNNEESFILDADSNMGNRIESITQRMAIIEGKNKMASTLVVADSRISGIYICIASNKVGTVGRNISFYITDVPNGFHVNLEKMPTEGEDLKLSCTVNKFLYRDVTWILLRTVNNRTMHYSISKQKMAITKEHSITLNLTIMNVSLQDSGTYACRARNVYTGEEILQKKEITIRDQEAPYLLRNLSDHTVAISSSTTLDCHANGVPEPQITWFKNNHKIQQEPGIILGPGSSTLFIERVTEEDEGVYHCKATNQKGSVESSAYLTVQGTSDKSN

B1: peptide 1 (WGGPVRGSWTWENGKWTWKGIIRLEQ) (peptide)
peptide: WGGPVRGSWTWENGKWTWKGIIRLEQ
notes: Synthetic in SPR; on phage in the colony ELISA; also called BPB2 peptide 1
In [1], B1 displayed a koff of 0.02 s⁻¹ and an on-rate constant (kon) of 250000 M⁻¹ s⁻¹. Moreover, the affinity in assay [2], expressed as Kd, was 115 nM.

B2: Strep_opti1 (peptide)
peptide: WSHPQFEKGGGSWTWENGKWTWKGAHPQVR
notes: Synthetic peptide in SPR
On to B2, for which the “fold increase in affinity compared with control peptide WSHPQFEK” value in the assay with streptavidin [3] is 1220 fold. Binding with streptavidin [4] was put at a Kd of 67 nM. The binding result with BSA was “no binding”.

B3: streptavidin-binding peptide WSHPQFEK (peptide)
peptide: WSHPQFEK
notes: Synthetic control peptide in SPR; also called known peptide
B3: the dissociation constant (Kd) with streptavidin [4] came to 82000 nM.

B4: Strep_opti2 (peptide)
peptide: WSHPQFEKGGGSWTWENGKWTWKGTLIHPM
In the case of B4, the binding result with BSA was “no binding”.

B5: peptide 3 (CSSPIQGSWTWENGKWTWKGIIRLEQ) (peptide)
peptide: CSSPIQGSWTWENGKWTWKGIIRLEQ
notes: also called BPB2EDB; BPB2
Take B5: in assay [5], the dissociation constant (Kd) turned out to be 16 nM, the koff is 0.00051 s⁻¹ and the kon turned out to be 30000 M⁻¹ s⁻¹.

B6: VEGFR1_opti1 (peptide)
peptide: GNQWFIGGGSWTWENGKWTWKGRIPKNR
notes: Synthetic peptide in SPR; also called optimized peptide VEGFR1_opti1; KPI-BPB VEGFR1_opti1
With B6, the “fold increase in affinity compared with the control peptide” value in assay [6] is around 360 fold. Besides, in the assay with streptavidin [7], the binding result is on record as “no binding”.

B7: VEGFR1_opti3 (peptide)
peptide: GNQWFIGGGSWTWENGKWTWKGQQAIQP
notes: also called KPI-BPB VEGFR1_opti3
As for B7, the binding result in the assay with streptavidin [7] is on record as “no binding”.

B8: VEGFR1_opti2 (peptide)
peptide: GNQWFIGGGSWTWENGKWTWKGKLQNPM
notes: also called KPI-BPB VEGFR1_opti2
For B8, the binding result with streptavidin [7] is recorded as “no binding”.

B9: peptide 2 (ADGRVRGSWTWENGKWTWKGIIRLEQ) (peptide)
peptide: ADGRVRGSWTWENGKWTWKGIIRLEQ
notes: Synthetic in SPR; on phage in the colony ELISA; also called BPB2 peptide 2
Turning to B9, in [1], the koff came out at 0.01 s⁻¹ and the kon was 370000 M⁻¹ s⁻¹. Further, in assay [8], the Kd was 35 nM.

In general, koff refers to a measure of how fast the partners let go of each other. Broadly, the kon is a measure of how fast the partners come together. As a reminder, the Kd is the equilibrium constant for the complex coming apart.
